Laboratory results reported in patent publication US6383484.

How the values were obtained:
[1] = target: VEGF-DΔNΔC (human VEGF-D residues 93 to 201, FLAG-tagged at the N-terminus) (human) (UniProt O43915); experiment: cell-based or functional assay
[2] = target: VEGF-DΔNΔC (human VEGF-D residues 93 to 201, FLAG-tagged at the N-terminus) (human) (UniProt O43915); experiment: SPR (BIAcore 3000), antibody immobilized, human VEGF-DΔNΔC flowed at 41-689 nM, 1:1 Langmuir model
[3] = target: T1, chimeric protein consisting of the extracellular domain of human VEGFR-1 and the Fc portion of human IgG (human, UniProt P17948 27-758); experiment: plate receptor-binding assay, VEGFR-1/Ig coated, detection with biotinylated M2
T1 construct: extracellular domain; also called VEGFR-1/Ig; not shown: Fc portion of human IgG
T1 sequence (P17948 27-758, change not shown): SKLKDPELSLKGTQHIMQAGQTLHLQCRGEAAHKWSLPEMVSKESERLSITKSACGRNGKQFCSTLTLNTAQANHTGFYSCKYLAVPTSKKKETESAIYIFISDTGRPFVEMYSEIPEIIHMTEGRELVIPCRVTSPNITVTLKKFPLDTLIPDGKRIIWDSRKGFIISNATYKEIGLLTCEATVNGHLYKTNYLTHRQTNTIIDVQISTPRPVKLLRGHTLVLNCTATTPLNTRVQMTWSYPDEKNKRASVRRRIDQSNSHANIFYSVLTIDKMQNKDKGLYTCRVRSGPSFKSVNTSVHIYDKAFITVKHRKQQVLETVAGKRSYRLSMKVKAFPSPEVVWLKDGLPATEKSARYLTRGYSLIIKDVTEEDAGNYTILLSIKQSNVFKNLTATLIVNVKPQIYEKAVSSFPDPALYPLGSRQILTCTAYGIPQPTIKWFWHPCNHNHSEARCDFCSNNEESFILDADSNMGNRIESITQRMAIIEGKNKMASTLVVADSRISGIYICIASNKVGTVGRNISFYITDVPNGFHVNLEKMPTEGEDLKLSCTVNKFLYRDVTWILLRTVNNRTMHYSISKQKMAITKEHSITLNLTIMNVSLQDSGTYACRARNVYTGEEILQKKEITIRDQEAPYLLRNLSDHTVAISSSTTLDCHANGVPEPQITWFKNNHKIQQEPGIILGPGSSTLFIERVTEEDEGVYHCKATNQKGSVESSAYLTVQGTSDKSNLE

response of Ba/F3-NYK-EpoR cells to VEGF-D?N?C (3H-thymidine incorporation) [1]	Kd [2]	koff [2]	kon [2]	Molecule	binding result [3]
80 µg/mL	0.0571 µM	0.00445 s⁻¹	78000 M⁻¹ s⁻¹	monoclonal antibody 4E10	
				VEGF-DΔNΔC (human VEGF-D residues 93 to 201, FLAG-tagged at the N-terminus) (ligand, also called VEGF-D?N?C; human VEGF-D?N?C; not shown: FLAG octapeptide (Sigma) at the N-terminus; any vector-de) FYDIETLKVIDEEWQRTQCSPRETCVEVASELGKSTNTFFKPPCVNVFRCGGCCNEESLICMNTSTSYISKQLFEISVPLTSVPELVPVKVANHTGCKCLPTAPRHPYS	no binding (tested: 7.3 µg/ml VEGF-DΔNΔC)
